According to patent publication US20140322233A1:

How the values were obtained:
[1] = biological target: T1, human guanylyl cyclase C (GCC), full length (human), P25092; assay: whole cell binding of radiolabeled ST-toxin, T84 cells (endogenous GCC)
[2] = biological target: human GCC, full length with myc tag (293-GCC#2 cells) (human), P25092; assay: whole cell binding of radiolabeled ST-toxin, 293-GCC cells
[3] = biological target: T1, human guanylyl cyclase C (GCC), full …; assay: whole cell binding of radiolabeled ST-toxin, HT-29-GCC#2/#5 cells

T1 sequence (P25092 24-1073 limits assumed): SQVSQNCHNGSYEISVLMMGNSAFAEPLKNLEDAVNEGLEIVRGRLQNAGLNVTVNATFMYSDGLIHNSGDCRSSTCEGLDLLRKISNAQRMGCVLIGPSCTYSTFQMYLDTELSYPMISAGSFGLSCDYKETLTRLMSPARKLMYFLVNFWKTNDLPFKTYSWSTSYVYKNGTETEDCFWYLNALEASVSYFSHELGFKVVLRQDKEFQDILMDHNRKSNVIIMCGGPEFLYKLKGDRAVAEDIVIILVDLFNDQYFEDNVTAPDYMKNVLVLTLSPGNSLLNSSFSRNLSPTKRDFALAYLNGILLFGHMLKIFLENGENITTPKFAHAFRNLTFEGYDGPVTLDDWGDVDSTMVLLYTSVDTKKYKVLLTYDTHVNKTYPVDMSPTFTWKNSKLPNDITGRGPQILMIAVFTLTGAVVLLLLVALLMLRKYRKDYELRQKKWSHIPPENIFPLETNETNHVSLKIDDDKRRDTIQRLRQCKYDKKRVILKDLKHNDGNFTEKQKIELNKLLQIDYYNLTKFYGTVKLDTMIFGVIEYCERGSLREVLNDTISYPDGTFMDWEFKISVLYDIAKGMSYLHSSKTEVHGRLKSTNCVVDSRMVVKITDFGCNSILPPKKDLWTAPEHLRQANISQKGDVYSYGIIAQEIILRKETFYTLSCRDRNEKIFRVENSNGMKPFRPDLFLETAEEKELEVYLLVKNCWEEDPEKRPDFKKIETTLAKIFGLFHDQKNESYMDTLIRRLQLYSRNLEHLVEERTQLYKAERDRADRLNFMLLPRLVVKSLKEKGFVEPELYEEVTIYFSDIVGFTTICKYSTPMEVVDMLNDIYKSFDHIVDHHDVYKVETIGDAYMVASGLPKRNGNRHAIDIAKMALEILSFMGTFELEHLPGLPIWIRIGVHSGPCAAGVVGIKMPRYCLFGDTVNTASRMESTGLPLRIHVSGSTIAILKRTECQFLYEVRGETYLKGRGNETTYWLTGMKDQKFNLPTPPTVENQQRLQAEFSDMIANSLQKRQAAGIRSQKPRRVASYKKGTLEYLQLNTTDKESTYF
Chain of human GCC, full length with myc tag (293-GCC#2 cells) (human), P25092 (P25092 24-1073): as the sequence (P25092 24-1073 limits assumed) above

Work on NTFYCCELCCNPACAGCY (modifications not checked) [heat-stable enterotoxin (ST) peptide] yielded a Whole cell binding assay (receptor/cell) (receptor/cell) [1] of 300000, a Whole cell binding assay (receptor/cell) (receptor/cell) [2] of 600000 and a Whole cell binding assay (receptor/cell) (receptor/cell) [3] of 100000.
